These are literature values, as cited in publication PMC3158961.

Read-outs that look alike come from different tables or passages of the source.

Data set [1] deals with CEP55 (Homo sapiens) (UniProt Q53EZ4).
For data set [2] the target is unchanged. The source holds these as a separate data set.
The target in another data set is Nedd4 WW3 (UniProt P46934).
UniProt P46934, sequence (P46934 840-873): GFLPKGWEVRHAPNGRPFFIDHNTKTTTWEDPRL

UniProt Q53EZ4, sequence (Q53EZ4 whole entry): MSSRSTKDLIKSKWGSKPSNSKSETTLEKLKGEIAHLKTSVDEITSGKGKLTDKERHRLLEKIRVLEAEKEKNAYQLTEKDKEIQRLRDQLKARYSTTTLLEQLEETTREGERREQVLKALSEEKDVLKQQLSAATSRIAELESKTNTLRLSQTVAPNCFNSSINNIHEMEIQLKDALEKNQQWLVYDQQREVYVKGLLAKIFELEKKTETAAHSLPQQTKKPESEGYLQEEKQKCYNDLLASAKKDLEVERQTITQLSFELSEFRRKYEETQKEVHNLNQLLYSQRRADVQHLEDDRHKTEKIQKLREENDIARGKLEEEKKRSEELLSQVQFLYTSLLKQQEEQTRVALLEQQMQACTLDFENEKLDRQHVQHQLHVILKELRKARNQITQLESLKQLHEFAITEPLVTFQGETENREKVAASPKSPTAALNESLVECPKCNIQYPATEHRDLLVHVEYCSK

With “ALIX GPPX3Y peptide (from UniProt Q8WUM4)”, in the data set with CEP55 (Homo sapiens) [1], the Kd is 1000 nM.

Turning to “TSG101 GPPX3Y peptide (from UniProt Q99816)”, the Kd with CEP55 (Homo sapiens) [2] is 1000 nM.

Turning to “ENaC β subunit PPXY peptide (from UniProt P51168)”, the Kd with Nedd4 WW3 is 20000 nM.
